# Experimental data taken from US20220064335A1 (CRISPR THERAPEUTICS, published 2022).
# B1: mouse anti-BCMA-scFv monoclonal antibody 15C04-02F03 (antibody, mouse IgG1, kappa, V domains shown)
# VH: QVQLQQPGAELVKPGTSVKLSCKASAYTFTNYWIHWVKQRPGQGLEWIGRIDPNSGDTKYNEKFKSKASLTVDKPSSTANMQLSSLTSEDSAVYYCTRWGDLHYYAMDYWGQGTSVTVSS
# VL: DIVLTQSPASLAVSLGQRATISCQASESVSFTGTSLMHWYQQKPGQPPKLLIYRASNLDSGVPARFSGSGSESDFTLTIDPVEEDDAAVYYCMQSMEDPYTFGGGTKLEIKR
# notes: also called Native 15C04-02F03; anti-BCMA-scFv-AJ-1.3-15C04-02F03
# Columns and labels:
# [1] = molecular target: T1, anti-CD19 CAR (SEQ ID NO: 8) on CAR T cells; experiment: flow cytometry, % CAR positive cells against antibody dilution on anti-CD19 CAR T cells
# T1 construct: also called anti-CD19 CAR T cells
# Experimental: (§1) The purified 15C04-02F03 antibody was analyzed by flow cytometry for binding to CAR T cells expressing the anti-BCMA CAR of SEQ ID NO: 6 (anti-BCMA CAR T cells). CAR T cells expressing an anti-CD70 CAR of SEQ ID NO: 7 (anti-CD70 CAR T cells) or an anti-CD19 CAR SEQ ID NO: 8 (anti-CD19 CAR T cells) were used as negative controls. Anti-BCMA-scFv antibody (15C04-02F03) was analyzed at various dilutions (FIG. 2).
# [2] = molecular target: T2, anti-CD70 CAR (SEQ ID NO: 7) on CAR T cells; experiment: flow cytometry, % CAR positive cells against antibody dilution on anti-CD70 CAR T cells
# T2 construct: also called anti-CD70 CAR T cells
# Experimental: as §1
# T2 sequence (chain, as listed by the source limits assumed): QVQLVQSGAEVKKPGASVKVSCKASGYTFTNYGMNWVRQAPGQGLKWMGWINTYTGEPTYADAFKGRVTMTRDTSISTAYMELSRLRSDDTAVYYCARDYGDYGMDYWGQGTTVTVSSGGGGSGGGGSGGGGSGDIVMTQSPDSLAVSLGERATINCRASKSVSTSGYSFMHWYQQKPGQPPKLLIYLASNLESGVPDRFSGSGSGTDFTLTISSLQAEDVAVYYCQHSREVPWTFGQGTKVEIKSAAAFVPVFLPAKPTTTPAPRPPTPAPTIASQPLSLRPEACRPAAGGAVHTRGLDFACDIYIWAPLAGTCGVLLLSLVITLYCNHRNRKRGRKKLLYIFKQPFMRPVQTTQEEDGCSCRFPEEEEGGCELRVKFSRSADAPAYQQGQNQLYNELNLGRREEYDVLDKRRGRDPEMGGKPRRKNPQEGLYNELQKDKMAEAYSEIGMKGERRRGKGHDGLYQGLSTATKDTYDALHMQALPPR
binder,measurement,setting,value
B1,binding result,[1],no binding
same,binding result,[2],no binding
